One assay deals with T1, Flag-PRMT5 (human, UniProt O14744 1-637).
T1 construct: Protein arginine methyltransferase 5 (PRMT5), wild-type cDNA in lentiviral vector CD532A; 637 aa by the printed domain limits; also called Flag-tagged full-length (FL) PRMT5; PRMT5-FL; source: HEK293T, co-expressed, in lysate; purified from HEK293T cells (for the GST pull-down)
Description: pull-down; GST fusion proteins on glutathione-Sepharose 4B beads mixed with Flag-tagged proteins purified from HEK293T cells, 2 h at 4 °C; washed with 50 mM Tris-HCl pH 8.0, 0.2% NP-40, 150 mM NaCl, 2 mM EDTA; immunoblot. To be noted: both partners purified. (Immunoblotting shows a protein as a band on a membrane.)

Another assay concerns the target GST-fused LSD1 (human, UniProt O60341-2 1-876). The description is as above. Particulars: both partners purified.

Consider 2 molecules from PMC9164399, “The PRMT5-LSD1 axis confers Slug dual transcriptional activities and promotes breast cancer progression” (Journal of Experimental & Clinical Cancer Research : CR, 2022).

T1 sequence (O14744 whole entry, the tested form may be a part): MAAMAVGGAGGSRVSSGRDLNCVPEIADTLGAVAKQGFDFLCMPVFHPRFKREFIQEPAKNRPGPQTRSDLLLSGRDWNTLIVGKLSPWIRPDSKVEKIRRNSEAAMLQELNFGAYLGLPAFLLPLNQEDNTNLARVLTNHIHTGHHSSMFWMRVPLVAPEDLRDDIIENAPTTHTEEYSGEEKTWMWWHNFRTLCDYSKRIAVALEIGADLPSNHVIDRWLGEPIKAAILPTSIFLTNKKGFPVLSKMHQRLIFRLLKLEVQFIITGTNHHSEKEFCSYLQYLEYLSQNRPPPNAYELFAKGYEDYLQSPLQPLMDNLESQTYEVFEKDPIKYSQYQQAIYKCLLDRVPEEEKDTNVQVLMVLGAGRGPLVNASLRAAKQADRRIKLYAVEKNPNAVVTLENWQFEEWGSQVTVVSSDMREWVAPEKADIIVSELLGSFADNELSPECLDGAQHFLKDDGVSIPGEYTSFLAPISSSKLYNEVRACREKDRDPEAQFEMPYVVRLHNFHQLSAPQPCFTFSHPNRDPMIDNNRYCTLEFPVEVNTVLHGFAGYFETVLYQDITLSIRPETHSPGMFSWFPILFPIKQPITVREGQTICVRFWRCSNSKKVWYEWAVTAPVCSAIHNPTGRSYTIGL

B1: GST-fused Slug (natural protein, human, UniProt O43623 1-268, looked up)
chain: MPRSFLVKKHFNASKKPNYSELDTHTVIISPYLYESYSMPVIPQPEILSSGAYSPITVWTTAAPFHAQLPNGLSPLSGYSSSLGRVSPPPPSDTSSKDHSGSESPISDEEERLQSKLSDPHAIEAEKFQCNLCNKTYSTFSGLAKHKQLHCDAQSRKSFSCKYCDKEYVSLGALKMHIRTHTLPCVCKICGKAFSRPWLLQGHIRTHTGEKPFSCPHCNRAFADRSNLRAHLQTHSDVKKYQCKNCSKTFSRMSLLHKHEESGCCVAH
notes: Slug (SNAI2), cDNA in the bacterial expression vector pGEX-KG; also called GST-Slug
For the molecule B1, in the assay with Flag-PRMT5, the binding result is on record as “binds”.

B2: Flag-Slug (natural protein)
chain: MPRSFLVKKHFNASKKPNYSELDTHTVIISPYLYESYSMPVIPQPEILSSGAYSPITVWTTAAPFHAQLPNGLSPLSGYSSSLGRVSPPPPSDTSSKDHSGSESPISDEEERLQSKLSDPHAIEAEKFQCNLCNKTYSTFSGLAKHKQLHCDAQSRKSFSCKYCDKEYVSLGALKMHIRTHTLPCVCKICGKAFSRPWLLQGHIRTHTGEKPFSCPHCNRAFADRSNLRAHLQTHSDVKKYQCKNCSKTFSRMSLLHKHEESGCCVAH
notes: Slug (SNAI2), wild-type cDNA in lentiviral vector CD532A; 268 aa by the printed limits of the fragments; also called Flag-tagged Slug-FL; Flag-tagged Slug; source: HEK293T, expressed, in lysate; purified from HEK293T cells (for the GST pull-down)
As to B2, the binding result with GST-fused LSD1 was “binds”.
